Measured values published in paper PMC7803741, “Structural basis of GABARAP-mediated GABAA receptor trafficking and functions on GABAergic synaptic transmission” (Nature Communications, 2021).

Key:
Details in all cases: both partners purified
[1] = target: T1, GABAAR-associated protein (GABARAP) (mouse, UniProt Q9DCD6 1-117); assay: ITC; VP-ITC, 25 °C; 50 mM Tris pH 7.8, 100 mM NaCl, 1 mM EDTA, 1 mM DTT; γ2 subunit protein or peptide (100–200 μM) injected into GABARAP, GABARAPL1 or AP2 (10–20 μM) in the cell; one-site binding model
T1 construct: GABARAP, mouse, UniProt Q9DCD6; the thioredoxin-His6 tag was removed 'when needed'; also called GABARAP WT; source: E. coli BL21 (DE3), purified (nickel-NTA, size exclusion)

[2] = target: T2, GABAA receptor-associated protein (GABARAP) (mouse, UniProt Q9DCD6 1-117); assay: ITC; VP-ITC at 25 °C; 50 mM Tris pH 7.8, 100 mM NaCl, 1 mM EDTA, 1 mM DTT; γ2 subunit protein or peptide (100-200 μM) injected into GABARAP, GABARAPL1 or AP2 (10-20 μM) in the cell; one-site binding model
T2 construct: GABARAP, mouse, UniProt Q9DCD6; also called GABARAP WT; source: E. coli BL21 (DE3), purified (nickel-NTA, size exclusion)

[3] = target: T3, clathrin adaptor protein AP2 (AP2 μ1 subunit) (rat, UniProt P84092 158-435); assay: as above
T3 construct: AP2 μ1 subunit as printed, rat, UniProt P84092; the limits rest on the primer list; also called AP2 WT; source: E. coli BL21 (DE3), purified (nickel-NTA, size exclusion)
T3 sequence (looked up): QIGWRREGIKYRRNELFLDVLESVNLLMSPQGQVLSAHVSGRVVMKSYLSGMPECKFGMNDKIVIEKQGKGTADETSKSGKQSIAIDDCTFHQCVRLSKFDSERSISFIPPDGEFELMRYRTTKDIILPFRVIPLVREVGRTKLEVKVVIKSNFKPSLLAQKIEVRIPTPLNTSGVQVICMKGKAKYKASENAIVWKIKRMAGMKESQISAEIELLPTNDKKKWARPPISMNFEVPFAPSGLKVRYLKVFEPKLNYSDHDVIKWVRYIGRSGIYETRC

[4] = target: T4, GABARAPL1 (mouse, UniProt Q8R3R8 1-117); assay: as above
T4 construct: GABARAPL1, mouse, UniProt Q8R3R8; also called GABARAPL1 WT; source: E. coli BL21 (DE3), purified (nickel-NTA, size exclusion)

[5] = target: T2, GABAA receptor-associated protein …; assay: as above; remark: listed apart in the source
[6] = target: T5, clathrin adaptor protein AP2 (AP2 μ1 subunit as printed) (rat, UniProt P84092 1-435); assay: ITC; VP-ITC, 25 °C; 50 mM Tris pH 7.8, 100 mM NaCl, 1 mM EDTA, 1 mM DTT; γ2 subunit protein or peptide (100–200 μM) injected into GABARAP, GABARAPL1 or AP2 (10–20 μM) in the cell; one-site binding model
T5 construct: AP2 μ subunit (printed 'AP2 μ1 subunit'), rat, UniProt P84092; the full-length gene was amplified and shorter fragments were generated; Only the μ subunit is named as cloned; the text calls the protein 'AP2'; source: E. coli BL21 (DE3), purified (nickel-NTA, size exclusion)
T5 sequence (looked up): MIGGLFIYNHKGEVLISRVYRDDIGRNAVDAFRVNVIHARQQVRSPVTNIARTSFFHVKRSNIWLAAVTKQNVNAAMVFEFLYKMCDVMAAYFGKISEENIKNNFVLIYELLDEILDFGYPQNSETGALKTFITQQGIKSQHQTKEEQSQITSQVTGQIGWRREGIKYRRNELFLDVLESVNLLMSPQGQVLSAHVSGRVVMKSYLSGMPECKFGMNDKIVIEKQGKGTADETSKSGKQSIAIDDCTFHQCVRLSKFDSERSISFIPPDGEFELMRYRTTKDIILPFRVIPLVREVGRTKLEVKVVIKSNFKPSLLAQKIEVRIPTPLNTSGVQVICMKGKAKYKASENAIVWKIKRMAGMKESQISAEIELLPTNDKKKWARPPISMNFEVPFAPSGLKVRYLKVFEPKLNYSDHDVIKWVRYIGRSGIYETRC

[7] = target: T1, GABAAR-associated protein (GABARAP); assay: ITC; giant ankyrin peptides and GABARAP, compared against γ2-GIM
[8] = target: T6, GABARAPL1 (mouse, UniProt Q8R3R8 1-117); assay: ITC; VP-ITC, 25 °C; 50 mM Tris pH 7.8, 100 mM NaCl, 1 mM EDTA, 1 mM DTT; γ2 subunit protein or peptide (100–200 μM) injected into GABARAP, GABARAPL1 or AP2 (10–20 μM) in the cell; one-site binding model
T6 construct: GABARAPL1, mouse, UniProt Q8R3R8; source: E. coli BL21 (DE3), purified (nickel-NTA, size exclusion)

[9] = target: T7, GABARAP E17A (mouse, UniProt Q9DCD6 1-117, E17A); assay: as above
T7 construct: GABARAP, mouse, UniProt Q9DCD6, E17A; source: E. coli BL21 (DE3), purified (nickel-NTA, size exclusion)

[10] = target: T8, GABARAP K66E (mouse, UniProt Q9DCD6 1-117, K66E); assay: as above
T8 construct: GABARAP, mouse, UniProt Q9DCD6, K66E; source: E. coli BL21 (DE3), purified (nickel-NTA, size exclusion)
T8 sequence (Q9DCD6 whole entry K66E): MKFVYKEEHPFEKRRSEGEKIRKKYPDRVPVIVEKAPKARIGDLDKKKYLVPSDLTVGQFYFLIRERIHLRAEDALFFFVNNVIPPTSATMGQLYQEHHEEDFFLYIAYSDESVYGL

T2 sequence (Q9DCD6 whole entry): as the sequence (Q9DCD6 whole entry K66E) above, with E66K counted along it
T1 sequence (Q9DCD6 whole entry): as the sequence (Q9DCD6 whole entry K66E) above, with E66K counted along it
T7 sequence (Q9DCD6 whole entry E17A): as the sequence (Q9DCD6 whole entry K66E) above, with E17A, E66K counted along it

B1: γ2-GIM E402T variant (peptide, UniProt P22723-2 398-415, looked up)
chain: ERDETYGYECLDGKDCAS
notes: source: E. coli BL21 (DE3), purified (nickel-NTA, size exclusion)
[1]
  Kd: 8.4 µM

B2: GABAA receptor γ2-GIM Y403E (peptide, UniProt P22723-2 398-415, looked up)
chain: ERDEEEGYECLDGKDCAS
notes: as for B1
[2]
  Kd: 1 ± 0.1 µM
[3]
  Kd: 2.46 ± 0.22 µM

B3: GABAA receptor γ2 subunit GIM (GABARAP interacting motif, 398-415) (peptide)
chain: ERDEEYGYECLDGKDCAS
notes: also called γ2-GIM; source: E. coli BL21 (DE3), purified (nickel-NTA, size exclusion)
[4]
  Kd: 5.7 µM
  stoichiometry N: 1.23

B4: GABAA receptor γ2-GIM E402T (peptide, UniProt P22723-2 398-415, looked up)
chain: ERDETYGYECLDGKDCAS
notes: as for B1
[3]
  Kd: 0.56 ± 0.02 µM

B5: GABAA receptor γ2-GIM E406R (peptide, UniProt P22723-2 398-415, looked up)
chain: ERDEEYGYRCLDGKDCAS
notes: as for B1
[3]
  Kd: 0.69 ± 0.06 µM

B6: GABAA receptor γ2 subunit 375-442 (full length TM3-TM4 ICD) (domain or fragment, mouse, UniProt P22723-2 375-442, looked up)
chain: PAPTIDIRPRSATIQMNNATHLQERDEEYGYECLDGKDCASFFCCFEDCRTGAWRHGRIHIRIAKMDS
notes: GABAA receptor γ2 subunit, mouse, UniProt P22723-2, residues 375-442 (TM3-TM4 intracellular domain); also called GABAA receptor γ2 375-442; source: E. coli BL21 (DE3), purified (nickel-NTA, size exclusion)
[5]
  stoichiometry N: 0.53

B7: full length TM3–TM4 ICD (residues 375–442) of the GABAA receptor γ2 subunit (domain or fragment, mouse, UniProt P22723-2 375-442, looked up)
chain: B6 chain
notes: GABAA receptor γ2 subunit, mouse, UniProt P22723-2, residues 375-442; also called TM3–TM4 intracellular loop; source: E. coli BL21 (DE3), purified (nickel-NTA, size exclusion)
[1]
  Kd: ~8 µM

B8: GABAA receptor γ2-GIM L408Q (peptide, UniProt P22723-2 398-415, looked up)
chain: ERDEEYGYECQDGKDCAS
notes: as for B1
[3]
  Kd: > 50 µM

B9: γ2-GIM Y403E variant (phosphomimic mutation) (peptide, UniProt P22723-2 398-415, looked up)
chain: ERDEEEGYECLDGKDCAS
notes: as for B1
[6]
  fold decrease of affinity against γ2-GIM WT: ~10 fold
[1]
  fold increase of affinity against γ2-GIM WT: ~5 fold

B10: GABAA receptor γ2 subunit 375-424 (domain or fragment, mouse, UniProt P22723-2 375-424, looked up)
chain: PAPTIDIRPRSATIQMNNATHLQERDEEYGYECLDGKDCASFFCCFEDCR
notes: as for B1
[5]
  stoichiometry N: 0.92

## PEDDWTRFSSEEIREARQAAASHAPS [AnkG-ER peptide]
[7]
  fold stronger affinity for GABARAP than γ2-GIM: ~1000 fold

B11: GABAAR γ2 subunit GIM (GABARAP interacting motif, 398–415) (peptide, UniProt P22723-2 398-415, looked up)
chain: ERDEEYGYECLDGKDCAS
notes: as for B3
[8]
  Kd: ~6.6 µM
[9]
  binding result: binds
[10]
  fold weakening against GABARAP WT: ~4 fold

B12: GABAA receptor γ2 subunit 404-442 (domain or fragment, mouse)
chain: GYECLDGKDCASFFCCFEDCRTGAWRHGRIHIRIAKMDS
notes: GABAA receptor γ2 subunit, mouse, UniProt P22723-2, residues 404-442; also called GABAA receptor γ2 404-442; source: E. coli BL21 (DE3), purified (nickel-NTA, size exclusion)
[5]
  Kd: 30 µM
  stoichiometry N: 0.55

B13: GABAA receptor γ2 subunit 398-424 (domain or fragment, mouse)
chain: ERDEEYGYECLDGKDCASFFCCFEDCR
notes: as for B1
[5]
  Kd: 5 µM
  stoichiometry N: 0.92
